The text below walks through data of PMC5370111, “Biophysical characterization of the b-HLH-LZ of ΔMax, an alternatively spliced isoform of Max found in tumor cells: Towards the validation of a tumor suppressor role for the Max homodimers”.

Data set [1] has as its system Max* in heterodimer;ΔMax* in heterodimer V99G;R100E;A101S;L102E;E103S (;), P61244+P61244-3. Kind of data set: fluorescence anisotropy. To be noted: 37 C, 1:1 mixture, apparent 1/KBinding, internal fluorescein-dT (iFluorT) at position 4, FA: 15 nM dsDNA, 50 mM Tris, 50 mM KCl, pH 7.5, 37 C, EMSA: 250 nM DNA, 20 mM Tris-HCl, 75 mM KCl, 2.5 mM TCEP, 25 ug/mL BSA, 5% glycerol, pH 8.0, room temp …. (In fluorescence polarisation assays a small probe gives low polarisation when free and higher when bound to something large.)

For data set [2], the system named is ΔMax* in heterodimer;c-Myc* in heterodimer V99G;R100E;A101S;L102E;E103S (;), P61244-3+P01106. Kind of data set: fluorescence anisotropy. The conditions noted are these: 37 C, 1:1 mixture, apparent 1/KBinding, internal fluorescein-dT (iFluorT) at position 4, FA: 15 nM dsDNA, 50 mM Tris, 50 mM KCl, pH 7.5, 37 C, EMSA: 250 nM DNA, 20 mM Tris-HCl, 75 mM KCl, 2.5 mM TCEP, 25 ug/mL BSA, 5% glycerol, pH 8.0, room temp ….

Data set [3] relates to ΔMax* (b-HLH-LZ of ΔMax splice isoform) V99G;R100E;A101S;L102E;E103S, P61244-3. In words: fluorescence anisotropy. To be noted: 37 C; apparent 1/KBinding of dimer; 1/KDimer 220 ± 20 nM; internal fluorescein-dT (iFluorT) at position 4; FA: 15 nM dsDNA, 50 mM Tris, 50 mM KCl, pH 7.5, 37 C; EMSA: 250 nM DNA, 20 mM Tris-HCl, 75 mM KCl, 2.5 mM TCEP, 25 ug/mL BSA, 5% glycerol, pH 8.0, room temp ….

The target of data set [4] is Max* in heterodimer;c-Myc* in heterodimer (;, UniProt P61244;P01106 22-103;368-451, |). Kind of data set: EMSA; room temperature; Max*/Max* complex also seen at 2:1 excess of c-Myc*; FA: 15 nM dsDNA, 50 mM Tris, 50 mM KCl, pH 7.5, 37 C; EMSA: 250 nM DNA, 20 mM Tris-HCl, 75 mM KCl, 2.5 mM TCEP, 25 ug/mL BSA, 5% glycerol, pH 8.0, room temp; CD: 25 mM KH2PO4, 25 mM Na2HPO4, 50 mM KCl, 1 mM TCEP, pH 6.8. To be noted: protein: recombinant;recombinant; tags: ;; copies: 1;1; label: fluorescein; blunt, self-complementary palindrome. A general note: In EMSA bound probe runs differently from free probe, usually more slowly.

Data set [5] deals with T1, c-Myc* (b-HLH-LZ of c-Myc) (UniProt P01106 368-451). Kind of data set: fluorescence anisotropy; 37 C; apparent 1/KBinding of dimer; 1/KDimer 0.48 ± 0.5 nM; FA: 15 nM dsDNA, 50 mM Tris, 50 mM KCl, pH 7.5, 37 C; EMSA: 250 nM DNA, 20 mM Tris-HCl, 75 mM KCl, 2.5 mM TCEP, 25 ug/mL BSA, 5% glycerol, pH 8.0, room temp; CD: 25 mM KH2PO4, 25 mM Na2HPO4, 50 mM KCl, 1 mM TCEP, pH 6.8. The conditions noted are these: protein: recombinant; chain copies: 2; label: fluorescein; blunt, self-complementary palindrome.

Data set [6] addresses T2, Max* (b-HLH-LZ of WT Max) (UniProt P61244 22-103). Kind of data set: fluorescence anisotropy; 37 C; apparent 1/KBinding of dimer; 1/KDimer 8.6 ± 1.2 nM; FA: 15 nM dsDNA, 50 mM Tris, 50 mM KCl, pH 7.5, 37 C; EMSA: 250 nM DNA, 20 mM Tris-HCl, 75 mM KCl, 2.5 mM TCEP, 25 ug/mL BSA, 5% glycerol, pH 8.0, room temp; CD: 25 mM KH2PO4, 25 mM Na2HPO4, 50 mM KCl, 1 mM TCEP, pH 6.8. To be noted: protein: recombinant; tags: C-terminal GSGC stated for the deltaMax* construct only; not restated for Max*; chain copies: 2; label: fluorescein; blunt, self-complementary palindrome.

Data set [7] concerns the target T1, c-Myc* (b-HLH-LZ of c-Myc). Kind of data set: CD thermal denaturation; stable complex; FA: 15 nM dsDNA, 50 mM Tris, 50 mM KCl, pH 7.5, 37 C; EMSA: 250 nM DNA, 20 mM Tris-HCl, 75 mM KCl, 2.5 mM TCEP, 25 ug/mL BSA, 5% glycerol, pH 8.0, room temp; CD: 25 mM KH2PO4, 25 mM Na2HPO4, 50 mM KCl, 1 mM TCEP, pH 6.8. The conditions noted are these: protein: recombinant; chain copies: 2; blunt, self-complementary palindrome.

The target in data set [8] is T2, Max* (b-HLH-LZ of WT Max). In words: CD thermal denaturation; complex T° 56.1 C; FA: 15 nM dsDNA, 50 mM Tris, 50 mM KCl, pH 7.5, 37 C; EMSA: 250 nM DNA, 20 mM Tris-HCl, 75 mM KCl, 2.5 mM TCEP, 25 ug/mL BSA, 5% glycerol, pH 8.0, room temp; CD: 25 mM KH2PO4, 25 mM Na2HPO4, 50 mM KCl, 1 mM TCEP, pH 6.8. To be noted: protein: recombinant; tags: C-terminal GSGC stated for the deltaMax* construct only; not restated for Max*; chain copies: 2; blunt, self-complementary palindrome.

The target in data set [9] is T2, Max* (b-HLH-LZ of WT Max). In words: CD thermal denaturation; complex T° 43.7 C; less stable than E-box; FA: 15 nM dsDNA, 50 mM Tris, 50 mM KCl, pH 7.5, 37 C; EMSA: 250 nM DNA, 20 mM Tris-HCl, 75 mM KCl, 2.5 mM TCEP, 25 ug/mL BSA, 5% glycerol, pH 8.0, room temp; CD: 25 mM KH2PO4, 25 mM Na2HPO4, 50 mM KCl, 1 mM TCEP, pH 6.8. To be noted: protein: recombinant; tags: C-terminal GSGC stated for the deltaMax* construct only; not restated for Max*; chain copies: 2; blunt, self-complementary palindrome.

Data set [10] has as its target T2, Max* (b-HLH-LZ of WT Max). In words: fluorescence anisotropy; 37 C; apparent 1/KBinding of dimer; 1/KDimer 55 ± 7 nM; FA: 15 nM dsDNA, 50 mM Tris, 50 mM KCl, pH 7.5, 37 C; EMSA: 250 nM DNA, 20 mM Tris-HCl, 75 mM KCl, 2.5 mM TCEP, 25 ug/mL BSA, 5% glycerol, pH 8.0, room temp; CD: 25 mM KH2PO4, 25 mM Na2HPO4, 50 mM KCl, 1 mM TCEP, pH 6.8. To be noted: protein: recombinant; tags: C-terminal GSGC stated for the deltaMax* construct only; not restated for Max*; chain copies: 2; label: fluorescein; blunt, self-complementary palindrome.

In data set [11] the target is T1, c-Myc* (b-HLH-LZ of c-Myc). In words: fluorescence anisotropy; 37 C; apparent 1/KBinding of dimer; 1/KDimer 8.5 ± 3 nM; FA: 15 nM dsDNA, 50 mM Tris, 50 mM KCl, pH 7.5, 37 C; EMSA: 250 nM DNA, 20 mM Tris-HCl, 75 mM KCl, 2.5 mM TCEP, 25 ug/mL BSA, 5% glycerol, pH 8.0, room temp; CD: 25 mM KH2PO4, 25 mM Na2HPO4, 50 mM KCl, 1 mM TCEP, pH 6.8. The conditions noted are these: protein: recombinant; chain copies: 2; label: fluorescein; blunt, self-complementary palindrome.

T2 sequence (P61244 22-103): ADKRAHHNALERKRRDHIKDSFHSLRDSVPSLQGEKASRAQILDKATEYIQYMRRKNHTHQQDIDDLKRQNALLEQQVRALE
T1 sequence (P01106 368-451): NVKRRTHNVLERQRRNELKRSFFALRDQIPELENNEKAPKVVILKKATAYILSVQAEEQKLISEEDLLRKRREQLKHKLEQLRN
ΔMax* in heterodimer;c-Myc* in heterodimer V99G;R100E;A101S;L102E;E103S (;), P61244-3+P01106, sequence (P01106 whole entry, looked up, chain 1 of 2): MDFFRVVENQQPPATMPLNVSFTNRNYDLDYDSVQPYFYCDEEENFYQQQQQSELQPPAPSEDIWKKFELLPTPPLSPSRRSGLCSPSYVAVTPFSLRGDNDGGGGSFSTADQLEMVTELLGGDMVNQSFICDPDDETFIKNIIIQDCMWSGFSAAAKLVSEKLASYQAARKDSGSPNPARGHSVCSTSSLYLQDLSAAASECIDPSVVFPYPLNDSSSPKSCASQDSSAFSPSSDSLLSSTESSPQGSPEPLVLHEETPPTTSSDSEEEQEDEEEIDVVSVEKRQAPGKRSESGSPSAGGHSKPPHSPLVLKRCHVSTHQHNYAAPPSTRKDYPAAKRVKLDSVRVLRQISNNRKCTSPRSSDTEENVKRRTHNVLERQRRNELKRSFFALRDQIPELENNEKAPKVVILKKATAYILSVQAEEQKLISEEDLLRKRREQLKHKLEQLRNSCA
ΔMax* in heterodimer;c-Myc* in heterodimer V99G;R100E;A101S;L102E;E103S (;), P61244-3+P01106, sequence (P61244 whole entry, looked up, stated change not applied, chain 2 of 2): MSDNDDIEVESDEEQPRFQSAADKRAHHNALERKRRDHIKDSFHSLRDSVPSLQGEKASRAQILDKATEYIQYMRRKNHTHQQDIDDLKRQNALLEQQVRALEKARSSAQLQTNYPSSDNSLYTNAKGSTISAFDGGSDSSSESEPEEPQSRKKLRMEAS
Max* in heterodimer;ΔMax* in heterodimer V99G;R100E;A101S;L102E;E103S (;), P61244+P61244-3, sequence (P61244 whole entry V99G/R100E/A101S/L102E/E103S, looked up, one chain of several): as the sequence (P61244 whole entry, looked up, stated change not applied, chain 2 of 2) above, with V99G, R100E, A101S, L102E, E103S counted along it
Max* in heterodimer;c-Myc* in heterodimer, sequence (P61244 22-103, chain 1 of 2): as the sequence (P61244 22-103) above
Max* in heterodimer;c-Myc* in heterodimer, sequence (P01106 368-451, chain 2 of 2): as the sequence (P01106 368-451) above
ΔMax* (b-HLH-LZ of ΔMax splice isoform) V99G;R100E;A101S;L102E;E103S, P61244-3, sequence (P61244 whole entry V99G/R100E/A101S/L102E/E103S, looked up, canonical isoform): as the sequence (P61244 whole entry, looked up, stated change not applied, chain 2 of 2) above, with V99G, R100E, A101S, L102E, E103S counted along it

For “GAGTAGCACGTGCTACTC (double strand) [E-box, fluorescein-labeled]”, the Kd in [1] (1/KDimer 120 ± 10 nM) stood at 4 nM; in data set [2] (1/KDimer 17 ± 2 nM), 10 nM; in data set [3] it was 80 nM.

As to “GAGTAGGGATCCCTACTC (double strand) [Non-specific DNA, fluorescein-labeled]”, the results for the Kd in data set [1] (1/KDimer 460 ± 34 nM) and in [2] (1/KDimer 38 ± 5 nM) were 40 nM and 11 nM, respectively.

B1: E-box, fluorescein-labeled (dsDNA)
DNA 1: GAGTAGCACGTGCTACTC
DNA 2: GAGTAGCACGTGCTACTC
modifications: internal fluorescein-dT (iFluorT) at position 4
On to B1, for which, in [4], the binding result is given as “binds”. For the same molecule, the Kd came out at 70 nM in [5] and 4.8 nM in [6].

B2: E-box, unlabeled (CD) (dsDNA)
DNA 1: GAGTAGCACGTGCTACTC
DNA 2: GAGTAGCACGTGCTACTC
Turning to B2, the binding result in data set [7] and in data set [8] was “binds” throughout.

B3: Non-specific DNA, unlabeled (CD) (dsDNA)
DNA 1: GAGTAGGGATCCCTACTC
DNA 2: GAGTAGGGATCCCTACTC
For B3, the binding result in data set [9] is “binds”.

B4: Non-specific DNA, fluorescein-labeled (dsDNA)
DNA 1: GAGTAGGGATCCCTACTC
DNA 2: GAGTAGGGATCCCTACTC
modifications: internal fluorescein-dT (iFluorT) at position 4
As to B4, the values for the Kd in [10] and in data set [11] were 23 nM and 280 nM, respectively.
